Series [1] concerns the target membrane-bound PD-L1 on MDA-MB-231 cells (Homo sapiens?) (UniProt Q9NZQ7). The experiment in a line: cell retention assay. To be noted: aptamer on slide, 5' amine (NH2), BLI: 1x PBS pH 7.4, aptamers 3-12 uM, 300 s association, 600 s dissociation, temperature not stated, EMSA: TBE-PAGE, binding buffer composition not given.
In series [2] the target is membrane-bound PD-L1 on MDA-MB-231 cells, PNGase F treated (UniProt Q9NZQ7). Briefly: cell retention assay. Particulars: 5' amine (NH2), BLI: 1x PBS pH 7.4, aptamers 3-12 uM, 300 s association, 600 s dissociation, temperature not stated, EMSA: TBE-PAGE, binding buffer composition not given.
membrane-bound PD-L1 on MDA-MB-231 cells, PNGase F treated, sequence (Q9NZQ7 19-290): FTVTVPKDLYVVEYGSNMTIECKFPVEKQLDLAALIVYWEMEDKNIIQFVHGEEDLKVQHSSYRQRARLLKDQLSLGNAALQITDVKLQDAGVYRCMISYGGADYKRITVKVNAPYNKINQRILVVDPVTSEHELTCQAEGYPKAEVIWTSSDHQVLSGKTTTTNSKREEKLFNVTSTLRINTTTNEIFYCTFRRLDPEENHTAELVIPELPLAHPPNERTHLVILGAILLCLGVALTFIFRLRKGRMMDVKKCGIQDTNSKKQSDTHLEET

membrane-bound PD-L1 on MDA-MB-231 cells (Homo sapiens?), sequence (Q9NZQ7 19-290): as above

With “TGACACCGTACCTGCTCTCCGCGCGAAGCACGCCAGGGACTAT [Apt13]”, the binding signal (% cells retained) in series [1] (comparison with Apt45) stood at 72.9; in series [1] (comparison with Tr-Apt13), 62.8. Regarding “GTACCTGCTCTCCGCGCGAAGCACGCCAGGGACT [Tr-Apt13]”, the binding signal (% cells retained) in series [1] stood at 86.8. On to “ATAGTCCCTGGCGTGCTTGGTCGGCAGAGCAGGTACGGTGTCA [Apt45]”, for which the binding signal (% cells retained) in series [2] came out at 46; in series [1] (negligible adhesion), 5.9.

These data come from paper PMC12806343.
